Residue numbers refer to the chain shown, from its start. Names may count otherwise.

The target of assay [1] is PLCγ1 PLC-core (residues 13−1215, Δ488–933, H335A) (human) (UniProt P19174). In words: ITC; cSH2 domain in the syringe, PLC-core in the cell. In general terms: Isothermal titration calorimetry measures the heat released or taken up as one component is titrated into another.
A further assay has as its target FGFR1 kinase domain (UniProt P11362). In words: ITC, two-site fit. The settings on record: reference: nonphosphorylated wild-type nSH2-cSH2; sites Y783.
In assay [2] the target is T1, PLCγ1 cSH2 domain, wild type (human).
T1 sequence (P19174 whole entry, looked up): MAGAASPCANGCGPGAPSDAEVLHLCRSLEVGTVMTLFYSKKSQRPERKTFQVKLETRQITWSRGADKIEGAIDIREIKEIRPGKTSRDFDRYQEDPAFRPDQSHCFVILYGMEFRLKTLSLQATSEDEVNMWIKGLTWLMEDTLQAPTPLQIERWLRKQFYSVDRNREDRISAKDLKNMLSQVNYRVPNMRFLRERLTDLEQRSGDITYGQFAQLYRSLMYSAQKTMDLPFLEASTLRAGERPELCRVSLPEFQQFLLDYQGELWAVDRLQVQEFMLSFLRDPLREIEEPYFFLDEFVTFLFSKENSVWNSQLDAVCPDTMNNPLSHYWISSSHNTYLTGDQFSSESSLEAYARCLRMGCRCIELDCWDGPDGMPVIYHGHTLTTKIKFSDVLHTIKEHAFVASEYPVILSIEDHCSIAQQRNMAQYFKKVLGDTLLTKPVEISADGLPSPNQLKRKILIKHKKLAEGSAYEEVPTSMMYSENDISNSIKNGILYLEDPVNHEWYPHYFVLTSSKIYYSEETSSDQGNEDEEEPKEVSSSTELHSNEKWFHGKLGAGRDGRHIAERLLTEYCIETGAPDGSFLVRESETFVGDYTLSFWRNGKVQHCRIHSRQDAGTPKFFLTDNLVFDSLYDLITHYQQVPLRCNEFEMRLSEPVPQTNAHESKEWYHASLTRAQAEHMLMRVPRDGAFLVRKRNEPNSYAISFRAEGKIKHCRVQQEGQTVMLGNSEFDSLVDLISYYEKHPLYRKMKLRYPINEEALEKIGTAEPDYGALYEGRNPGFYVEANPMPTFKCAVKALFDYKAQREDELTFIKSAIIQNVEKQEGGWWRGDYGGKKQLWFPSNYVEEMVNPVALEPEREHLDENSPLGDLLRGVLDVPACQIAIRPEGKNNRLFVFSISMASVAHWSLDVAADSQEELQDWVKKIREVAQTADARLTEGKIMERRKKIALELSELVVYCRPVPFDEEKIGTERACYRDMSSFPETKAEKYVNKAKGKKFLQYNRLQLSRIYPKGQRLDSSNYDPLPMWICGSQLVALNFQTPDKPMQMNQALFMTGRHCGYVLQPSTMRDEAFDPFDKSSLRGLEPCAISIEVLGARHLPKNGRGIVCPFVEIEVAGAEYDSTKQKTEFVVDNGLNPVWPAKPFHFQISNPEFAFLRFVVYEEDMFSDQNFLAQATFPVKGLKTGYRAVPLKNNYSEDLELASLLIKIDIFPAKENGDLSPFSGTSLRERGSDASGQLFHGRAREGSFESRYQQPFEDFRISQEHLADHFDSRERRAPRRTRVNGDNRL
In words: NMR titration; 15N-labelled spPH, nSH2 or cSH2 domain observed by 1H-15N HSQC, unlabelled PLC-core (H335A) added up to 1:1; 25°C; for cSH2 then the phosphopeptide NPGFpYVEANPMP to 1:1:1.

Assay [3] addresses T2, PLCγ1 tandem nSH2-cSH2 domains, wild type (human, UniProt P19174 545-790).
T2 construct: PLCγ1 (phospholipase C gamma 1), tandem nSH2 and cSH2 domains with part of the cSH2-SH3 linker; residue numbering is for human PLCγ1; also called nSH2-cSH2^wt; nSH2cSH2^WT
T2 sequence: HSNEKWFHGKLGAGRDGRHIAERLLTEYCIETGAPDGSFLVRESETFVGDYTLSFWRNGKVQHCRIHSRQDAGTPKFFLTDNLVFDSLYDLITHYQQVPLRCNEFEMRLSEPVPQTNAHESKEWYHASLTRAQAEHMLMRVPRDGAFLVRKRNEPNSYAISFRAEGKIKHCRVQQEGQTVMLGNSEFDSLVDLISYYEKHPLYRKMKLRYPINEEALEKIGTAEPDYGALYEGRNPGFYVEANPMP
Kind of assay: ITC; FGFR1-1p in the syringe, PLCγ1 construct in the cell; corrected for heat of dilution; fit to a two-site model (nSH2-cSH2 constructs) or a one-site model (γSA). The settings on record: both partners purified.

The target in assay [4] is T3, PLCγ1 nSH2-cSH2 Y771F,Y775F (545–790) phosphorylated on Y783 (human, UniProt P19174 545-790, Y771F | Y775F, phosphotyrosine at 783).
T3 construct: PLCγ1, tandem nSH2-cSH2 with the cSH2-SH3 linker, residues 545-790; residue numbering is for human PLCγ1; also called nSH2-cSH2^Y771F,Y775F,pY783; nSH2cSH2^pY783
T3 sequence (looked up): T2 sequence with Y227F, Y231F
The description is as above. Conditions: both partners purified.

Assay [5] has as its target PLCγ1 specific array of domains (γSA), wild type (human). The description is as above.

In the case of “PLCγ1 cSH2 domain S729Y (domain or fragment)”, in assay [1], the Kd (commonly the free concentration of one partner at which half of the binding sites on the other are occupied at equilibrium, for simple one-to-one binding) came out at 61.3 µM; the dH was -1.45 kcal/mol; the stoichiometry N (commonly the number of molecules, sites or subunits per partner or assembly) was 1.
Turning to “PLCγ1 cSH2 domain N728D (domain or fragment)”, in assay [1], the Kd was determined as 49.5 µM, the dH was -1.43 kcal/mol and the stoichiometry N is 1.17.
With “PLCγ1 nSH2-cSH2 tandem, 545-790 (from UniProt P19174) nSH2-cSH2 Y771F,Y775F phosphorylated at Y783”, in the assay with FGFR1 kinase domain, the KD result is “weaker; reference 0.005 ± 0.001”.
In assay [1], “PLCγ1 cSH2 domain, wild type (domain or fragment)” came in with a Kd of 23.9 µM, a dH of 0.587 kcal/mol and a stoichiometry N of 1.14.

B1: PLCγ1 PLC-core (residues 13−1215, Δ488–933, H335A) (domain or fragment)
chain: GPGAPSDAEVLHLCRSLEVGTVMTLFYSKKSQRPERKTFQVKLETRQITWSRGADKIEGAIDIREIKEIRPGKTSRDFDRYQEDPAFRPDQSHCFVILYGMEFRLKTLSLQATSEDEVNMWIKGLTWLMEDTLQAPTPLQIERWLRKQFYSVDRNREDRISAKDLKNMLSQVNYRVPNMRFLRERLTDLEQRSGDITYGQFAQLYRSLMYSAQKTMDLPFLEASTLRAGERPELCRVSLPEFQQFLLDYQGELWAVDRLQVQEFMLSFLRDPLREIEEPYFFLDEFVTFLFSKENSVWNSQLDAVCPDTMNNPLSHYWISSSANTYLTGDQFSSESSLEAYARCLRMGCRCIELDCWDGPDGMPVIYHGHTLTTKIKFSDVLHTIKEHAFVASEYPVILSIEDHCSIAQQRNMAQYFKKVLGDTLLTKPVEISADGLPSPNQLKRKILIKHKKLAEGSAYEEVPTSMMYSENDISDARLTEGKIMERRKKIALELSELVVYCRPVPFDEEKIGTERACYRDMSSFPETKAEKYVNKAKGKKFLQYNRLQLSRIYPKGQRLDSSNYDPLPMWICGSQLVALNFQTPDKPMQMNQALFMTGRHCGYVLQPSTMRDEAFDPFDKSSLRGLEPCAISIEVLGARHLPKNGRGIVCPFVEIEVAGAEYDSTKQKTEFVVDNGLNPVWPAKPFHFQISNPEFAFLRFVVYEEDMFSDQNFLAQATFPVKGLKTGYRAVPLKNNYSEDLELASLLIKIDIFPAK
B1 showed a Kd in assay [2] of 25 µM.

B2: FGFR1-1p kinase domain (pY766) (domain or fragment, UniProt P11362 458-774, looked up)
chain: AGVSEYELPEDPRWELPRDRLVLGKPLGEGCFGQVVLAEAIGLDKDKPNRVTKVAVKMLKSDATEKDLSDLISEMEMMKMIGKHKNIINLLGACTQDGPLYVIVEYASKGNLREYLQARRPPGLEYCYNPSHNPEEQLSSKDLVSCAYQVARGMEYLASKKCIHRDLAARNVLVTEDNVMKIADFGLARDIHHIDYYKKTTNGRLPVKWMAPEALFDRIYTHQSDVWSFGVLLWEIFTLGGSPYPGVPVEELFKLLKEGHRMDKPSNCTNELYMMMRDCWHAVPSQRPTFKQLVEDLDRIVALTSNQEYLDLSMPLD
modifications: phosphotyrosine at 766
notes: fibroblast growth factor receptor 1 (FGFR1), kinase domain with the C-terminal tail holding pY766; see the Supplemental Experimental Procedures
B2: in assay [3], the “dH, first binding event” value is -6.5 ± 0.183 kcal/mol and the “dH, second binding event” value was determined as 7.12 ± 0.23 kcal/mol. Besides, in assay [4], the “dH, first binding event” value is -8.307 ± 0.025 kcal/mol and the “dH, second binding event” value was 37.7 ± 5.13 kcal/mol. In assay [5], this molecule showed a Kd of 0.185 µM, a dH of -7.09 kcal/mol and a stoichiometry N of 1.03.

The values above are taken from article PMC3532599, “Structural and Functional Integration of the PLCγ Interaction Domains Critical for Regulatory Mechanisms and Signaling Deregulation” (Structure(London, England:1993), 2012).
